Reference: PMC9005620, “The crystal structure of iC3b-CR3 αI reveals a modular recognition of the main opsonin iC3b by the CR3 integrin receptor” (Nature Communications, 2022)
Blank lines part the entries; values can stand above or below the molecule they belong to.

Columns and labels:
[1] = biological target: iC3b (human); test: SPR; iC3b immobilised on a CM5 chip by maleimide coupling via Cys988; αI variants as analyte, 5 injections at 0.32-26.0 μM; 10 mM HEPES-NaOH pH 7.4, 100 mM NaCl, 5 mM MgCl2; 25 °C; steady-state analysis of maximum RU, apparent KD (saturation not reached)
[2] = biological target: CR3 αI domain (von Willebrand A inserted domain of the αM chain of CR3), residues 126-321, C128S/I316G (human) (UniProt P11215); test: SPR; Biacore X100; CR3 αI biotinylated (NHS-PEG4-biotin) and captured on a streptavidin chip, ~900 RU; initial single-concentration injections, then 5 injections of iC3b (0.1-10.0 uM) or C3c (0.7-60.0 uM); 10 mM HEPES-NaOH pH 7.4, 100 mM NaCl, 5 mM MgCl2; 25 °C; steady-state model, saturation not reached, apparent KD
[3] = biological target: human iC3b (human) (UniProt P01024); test: SEC + other: SAXS; iC3b mixed with CR3 αI at 1:2 molar ratio, Superdex 200 10/300 GL, 20 mM HEPES-NaOH pH 7.5, 200 mM NaCl, 5 mM MgCl2; SAXS in continuous-flow batch mode at 4 °C
[4] = biological target: human iC3b (human) (UniProt P01024); test: SPR; Biacore X100; iC3b immobilised on CM5 chip by maleimide chemistry through Cys988; αI variants as analyte (5 injections at 0.32-26.0 uM); 10 mM HEPES-NaOH pH 7.4, 100 mM NaCl, 5 mM MgCl2; 25 °C; steady-state analysis, apparent KD
[5] = biological target: C3c (UniProt P01024 955-1303); test: SPR; Biacore X100; CR3 αI biotinylated (NHS-PEG4-biotin) and captured on a streptavidin chip, ~900 RU; initial single-concentration injections, then 5 injections of iC3b (0.1-10.0 uM) or C3c (0.7-60.0 uM); 10 mM HEPES-NaOH pH 7.4, 100 mM NaCl, 5 mM MgCl2; 25 °C; steady-state model, saturation not reached, apparent KD; conditions: both partners purified

Kd [1]: 64.7 µM
Molecule: CR3 αI domain variant 1A2A (R216A/K231A/R261A/R293A) (from UniProt P11215 142-337) (domain or fragment)

Kd [1]: 27.5 µM
Molecule: CR3 αI domain variant 2A (R216A/K231A) (from UniProt P11215 142-337) (domain or fragment)

Kd [2]: 5.2 µM
Molecule: human iC3b (from UniProt P01024 749-1303) (complex)

Kd [1]: 16.8 µM
Molecule: CR3 αI domain variant 1A (R261A/R293A) (from UniProt P11215 142-337) (domain or fragment)

stoichiometry N [3]: 1 | Kd [4]: 7.1 µM | Kd [5]: ~39 µM
B1: CR3 αI domain (von Willebrand A inserted domain of the αM chain of CR3), residues 126-321, C128S/I316G (domain or fragment)
chain: RGSPQEDSDIAFLIDGSGSIIPHDFRRMKEFVSTVMEQLKKSKTLFSLMQYSEEFRIHFTFKEFQNNPNPRSLVKPITQLLGRTHTATGIRKVVRELFNITNGARKNAFKILVVITDGEKFGDPLGYEDVIPEADREGVIRYVIGVGDAFRSEKSRQELNTIASKPPRDHVFQVNNFEALKTIQNQLREKGFAIEG
modifications: NHS-PEG4-biotin on random amine groups (only in the SPR where CR3 αI was captured on the streptavidin chip)
notes: Made in bacteria, so not glycosylated at Asn224; also called WT; not shown: His6, N-terminal, cleaved
